Literature values as cited in paper PMC8999013.

Biological target: integrin α7B cytoplasmic domain (Homo sapiens) (UniProt Q13683)
Experiment: intrinsic tryptophan fluorescence

CIB2, sequence (O75838 whole entry): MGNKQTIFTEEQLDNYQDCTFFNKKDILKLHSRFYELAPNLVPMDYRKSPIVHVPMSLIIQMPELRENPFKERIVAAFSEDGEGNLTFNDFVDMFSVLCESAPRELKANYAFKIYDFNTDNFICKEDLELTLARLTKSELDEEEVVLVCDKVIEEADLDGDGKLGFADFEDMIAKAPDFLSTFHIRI
integrin α7B cytoplasmic domain (Homo sapiens), sequence (Q13683 1104-1181): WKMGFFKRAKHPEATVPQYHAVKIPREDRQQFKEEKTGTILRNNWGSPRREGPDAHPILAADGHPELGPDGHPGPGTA

- Kd: 304 nM
Substance: CIB2 (from UniProt O75838)
